Data on ten molecules can be found in US20190338002A1 (Pieris, published 2019).

For assay [1], the target named is T1, human alpha CGRP (SEQ ID NO: 80) (human, not fully specified).
T1 construct: also called human αCGRP; hαCGRP
T1 peptide: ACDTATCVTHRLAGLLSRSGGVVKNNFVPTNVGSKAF
The assay can be described thus: SPR, Biacore T200, 37 C; biotinylated mutein captured, human alpha CGRP analyte. The procedure: The Biotin CAPture Kit (GE Healthcare) was used to immobilized biotinylated lipocalin muteins to a chip surface. Muteins were biotinylated using standard NHS chemistry. Fifty-fold diluted Biotin CAPture Reagent (streptavidin conjugated with ss-DNA oligo) was captured on a Sensor Chip CAP with the pre-immobilized complementary ss-DNA oligo. Thereafter, biotinylated muteins at 200 nM were applied for 60 s at a flow rate of 10 μL/min.
The dilutions were injected with association times of 600 s and dissociation times of 1800 s. Regeneration of the chip surface was achieved by injecting 6 M Guanidinium-HCl+0.25 M NaOH (120 s) with a flow rate of 10 μL/min, followed by injecting 30% acetonitrile+0.25 M NaOH (120 s) with a flow rate of 10 μL/min. Injection of regeneration solutions was followed by an extra wash step with HBS-EP+ running buffer and a stabilization period of 60 s.
The data were double-referenced by subtraction of the corresponding signals measured for the control channel (loaded with Biotin CAPture reagent only) and by subtraction of buffer injections from the binding responses. Association rate constant ka and dissociation rate constant kd for the binding reaction were determined using Biacore T200 Evaluation Software version 1.0 for data processing and kinetic fitting. The data were globally fit with 1:1 binding model.
For orientation: Surface plasmon resonance follows binding to a sensor surface in real time, without labels.

Assay [2] has as its target T1, human alpha CGRP (SEQ ID NO: 80). Put plainly: cell-based or functional assay.
Assay [3] shares this target. The assay can be described thus: SPR Biacore 37 °C, mutein captured as ligand, sample PL1827 (ha CGRP) injected, 1:1 fit; repeat run 130903_NAN-DS-058 (not the run of Table 2) [contd]. The procedure: (§1) The Biotin CAPture Kit (GE Healthcare) was used to immobilize biotinylated lipocalin muteins to a chip surface. Muteins were biotinylated using standard NHS chemistry. Undiluted Biotin CAPture Reagent (streptavidin conjugated with ss-DNA oligo) was captured on a Sensor Chip CAP with the pre-immobilized complementary ss-DNA oligo. Thereafter, biotinylated muteins at 1 μg/mL were applied for 300 s at a flow rate of 5 μL/min.
(§2) CGRP species were applied in three concentrations of 30 nM, 3 nM and 0.3 nM at a flow rate of 30 μL/min or in a single concentration of 25 nM per cycle as shown in FIG. 2. The dilutions were injected with association times of 180 s and dissociation times of 5400 sec to obtain ka and kd information. Regeneration of the chip surface was achieved by injecting 6 M Guanidinium-HCl+0.25 M NaOH (120 s) with a flow rate of 10 μL/min. Injection of regeneration solutions was followed by an extra wash step with HBS-EP+(1×; BR-1006-69; GE Healthcare) running buffer and a stabilization period of 120 s.
(§3) The data were double-referenced by subtraction of the corresponding signals measured for the control channel (loaded with Biotin CAPture reagent only) and by subtraction of buffer injections from the binding responses. Association rate constant ka and dissociation rate constant kd for the binding reaction were determined using Biacore T200 Evaluation Software V2.0 for data processing and kinetic fitting. The data were globally fit with 1:1 binding model.

In assay [4] the target is T2, human beta CGRP (SEQ ID NO: 81) (human, not fully specified).
T2 construct: also called human βCGRP; hβCGRP
T2 peptide: T1 peptide with D3N, V22M, N25S
Put plainly: SPR, 37 C, mutein captured, CGRP analyte. In short, it runs like this:
(§4)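 Biotinylated lipocalin muteins were captured on streptavidin-oligo CAP chip, and CGRP was injected at 30, 3 and 0.3 nM or at a single 25 nM at 37 °C (180 s association, 5400 s dissociation) in HBS-EP+. Double-referenced sensorgrams were globally fit to a 1:1 model for ka and kd.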

Assay [5] has as its target T3, rat alpha CGRP (SEQ ID NO: 82) (rat).
T3 construct: also called rat αCGRP; rat α-CGRP
T3 peptide: T1 peptide with A1S, D3N, N25D, K35E
Put plainly: SPR, 37 C, mutein captured, CGRP analyte. In short, it runs like this: as §4

Assay [6] addresses T1, human alpha CGRP (SEQ ID NO: 80). The assay can be described thus: SPR, 37 C, mutein captured, CGRP analyte. In short, it runs like this:
as §4

Assay [7] addresses T4, rat beta CGRP (SEQ ID NO: 83) (rat, not fully specified).
T4 construct: also called rat βCGRP; rat β-CGRP
T4 peptide: T1 peptide with A1S, D3N, N25D
Put plainly: SPR, 37 C, mutein captured, CGRP analyte. In short, it runs like this: as §4

Assay [8] addresses T2, human beta CGRP (SEQ ID NO: 81). The assay can be described thus: cell-based or functional assay.
Assay [9] has as its target T3, rat alpha CGRP (SEQ ID NO: 82). The assay can be described thus: cell-based or functional assay.
Assay [10] concerns the target T1, human alpha CGRP (SEQ ID NO: 80). Put plainly: cell-based or functional assay.
In assay [11] the target is T4, rat beta CGRP (SEQ ID NO: 83). Put plainly: cell-based or functional assay.
Assay [12] has as its target T3, rat alpha CGRP (SEQ ID NO: 82). The assay can be described thus: SPR Biacore 37 °C, mutein captured as ligand, ra CGRP (1-37) injected, 1:1 fit; repeat run 130208_NAN-DS-047 (not the run of Table 2) [contd]. On the procedure:
as §1, §2, §3

In assay [13] the target is T1, human alpha CGRP (SEQ ID NO: 80). The assay can be described thus: SPR Biacore 37 °C, mutein captured as ligand, ha CGRP (1-37) injected, 1:1 fit; repeat run 130208_NAN-DS-047 (not the run of Table 2) [contd]. On the procedure: as §1, §2, §3
Assay [14] addresses T4, rat beta CGRP (SEQ ID NO: 83). Put plainly: SPR Biacore 37 °C, mutein captured as ligand, rb CGRP (1-37) injected, 1:1 fit; repeat run 130208_NAN-DS-047 (not the run of Table 2) [contd]. On the procedure:
as §1, §2, §3

The target in assay [15] is T2, human beta CGRP (SEQ ID NO: 81). The assay can be described thus: SPR Biacore 37 °C, mutein captured as ligand, hb CGRP (1-37) injected, 1:1 fit; repeat run 130208_NAN-DS-047 (not the run of Table 2) [contd]. On the procedure:
as §1, §2, §3

For assay [16] the target is unchanged. Put plainly: cell-based or functional assay.
Target sequence in this assay (peptide, as listed by the source): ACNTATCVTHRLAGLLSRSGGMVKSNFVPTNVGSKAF
In assay [17] the target is T1, human alpha CGRP (SEQ ID NO: 80). Put plainly: cell-based or functional assay.
Assay [18] has as its target T2, human beta CGRP (SEQ ID NO: 81). Put plainly: SPR as in Example 5. The procedure:
as §1, §2

The target in assay [19] is T1, human alpha CGRP (SEQ ID NO: 80). Put plainly: SPR as in Example 5. The procedure:
as §1, §2

Changes are numbered by the printed parent chain.

B1: tag-free lipocalin mutein SEQ ID NO: 88 (designed binder)
chain: GQDSTSDLIPAPPLSKVPLQQNFQDNQFHGKWYVVGRAGNDVLREDKDPEKMEATIYELKEDKSYNVTDVGFVQKRCMYVTHTFVPGSQPGEFTLGNIESYPGVTSALVRVVSTDYNQHAMVFVKLVKQNRELFEITLYGRTKELTSELKENFIRFSKSLGLPENHIVFPVPIDQCIDG
notes: biotinylated by NHS chemistry for capture in SPR; also called tag-free mutein 88
As usually defined, the Kd is the free concentration of one partner at which half of the binding sites on the other are occupied at equilibrium, for simple one-to-one binding. Low readings indicate a tighter complex, high ones a looser complex. As for B1, the affinity in [1], expressed as Kd, was 0.008 nM. Moreover, the “cAMP assay IC50” value in assay [2] was 0.17 nM.

B2: tag-free lipocalin mutein SEQ ID NO: 93 (designed binder)
chain: B1 chain with P10H, N66Q, G179D
notes: biotinylated by NHS chemistry for capture in SPR; also called tag-free mutein 93
The molecule B2 had an equilibrium dissociation constant (Kd) in assay [1] of 0.011 nM. Also, in assay [2], the “cAMP assay IC50” value was 0.13 nM.

B3: tag-free lipocalin mutein SEQ ID NO: 91 (designed binder)
chain: B1 chain with P10H
notes: biotinylated by NHS chemistry for capture in SPR; also called tag-free mutein 91
For B3, in assay [1], the Kd amounted to 0.01 nM. Also, the “cAMP assay IC50” value in assay [2] turned out to be 0.16 nM.

B4: tag-free lipocalin mutein SEQ ID NO: 92 (designed binder)
chain: B1 chain with I9K, N66Q, G179D
notes: biotinylated by NHS chemistry for capture in SPR; also called tag-free mutein 92
B4: the Kd in assay [1] was 0.01 nM. For the same molecule, the “cAMP assay IC50” value in [2] was found to be 0.18 nM.

B5: tag-free lipocalin mutein SEQ ID NO: 90 (designed binder)
chain: B1 chain with I9K
notes: biotinylated by NHS chemistry for capture in SPR; also called tag-free mutein 90
In the case of B5, binding in assay [1] was put at a Kd of 0.012 nM. The “cAMP assay IC50” value in assay [2] stood at 0.16 nM.

B6: tag-free lipocalin mutein SEQ ID NO: 89 (designed binder)
chain: B1 chain with N66Q, G179D
notes: biotinylated by NHS chemistry for capture in SPR; also called tag-free mutein 89
Molecule B6 showed a Kd in assay [1] of 0.006 nM. In addition, the “cAMP assay IC50” value in assay [2] was 0.17 nM.

B7: tag-free lipocalin mutein SEQ ID NO: 87 (designed binder)
chain: GQDSTSDLIPAPPLSKVPLQQNFQDNQFQGKWYVVGWAGNTLLREDKDPIKMQAMIYELKEDKSYNVTWVYFADKKINYHIETFVPGSQPGEFTLGTIKSYPGETPILVRVVSTNYNQHAMVFFKGVNQNREIFEIVLYGRTKELTNELKENFIRFSKSLGLPENHIVFPVPIDQEIDG
notes: biotinylated by NHS chemistry for capture in SPR; also called tag-free mutein 87
In turn, B7 yielded a Kd in assay [1] of 0.081 nM. Besides, the “cAMP assay IC50” value in assay [2] amounted to 0.66 nM.

B8: lipocalin mutein SEQ ID NO: 14 (designed binder)
chain: QDSTSDLIPAPPLSKVPLQQNFQDNQFHGKWYVVGRAGNDALREDKDPEKMEATIYELKEDKSYNVTDVGFVQKKCMYVIHTFVPGSQPGEFTLGNIKSYPGVTSALVRVVSTNYNQHAMVFFKLVKQNRELFEITLYGRTKELTSELKENFIRFSKSLGLPENHIVFPVPIDQCIDGSAWSHPQFEK
notes: biotinylated by NHS chemistry for capture in SPR
By koff is commonly meant a measure of how fast the partners let go of each other. High values mean fast dissociation, low ones slow dissociation. Usually kon stands for the rate constant with which the complex forms. A high value points to faster complex formation. Regarding B8, the off-rate constant (koff) in [3] was 0.000183 s⁻¹; in assay [4], 0.000141 s⁻¹; in assay [5], 0.000339 s⁻¹; in assay [6] it was 0.000141 s⁻¹; in assay [7] it was 0.000181 s⁻¹. In addition, the kon in assay [3] was determined as 3.44e+06 M⁻¹ s⁻¹; in [4], 4.56e+06 M⁻¹ s⁻¹; in assay [5] it was 1.19e+06 M⁻¹ s⁻¹; in [6], 2.56e+06 M⁻¹ s⁻¹; in assay [7], 1.69e+06 M⁻¹ s⁻¹. Also, the Kd is 0.031 nM in assay [4], 0.29 nM in assay [5], 0.055 nM in assay [6] and 0.107 nM in assay [7]. Besides, the “IC50, CGRP-induced cAMP production, SK-N-MC cells” value in assay [8] turned out to be 1.5 nM; in assay [10], 0.15 nM. The “IC50, CGRP-induced cAMP production, L6 cells” value is 0.12 nM in assay [9] and 0.09 nM in assay [11].

B9: lipocalin mutein SEQ ID NO: 15 (designed binder)
chain: B8 chain with G38A, A41R, V72S, Q73R, M77I, V103T, A106G, L125V, K127G, L132S
notes: as for B8
With B9, the off-rate (koff) in [12] stood at 0.000295 s⁻¹; in assay [13] it was 0.000256 s⁻¹; in [4], 0.000273 s⁻¹; in assay [5], 0.000274 s⁻¹; in assay [6], 0.000238 s⁻¹; in assay [7], 0.000193 s⁻¹. The dissociation rate constant (koff) in assay [14] was determined as 0.000178 s⁻¹; in [15], 0.000309 s⁻¹. Moreover, the association rate constant (kon) in assay [12] was 1.38e+06 M⁻¹ s⁻¹; in [13], 5.23e+06 M⁻¹ s⁻¹; in [4], 1.53e+07 M⁻¹ s⁻¹; in assay [5], 1.59e+06 M⁻¹ s⁻¹; in [6], 6.32e+06 M⁻¹ s⁻¹; in assay [7], 4.98e+06 M⁻¹ s⁻¹. For the same molecule, the kon in assay [14] worked out at 2.31e+06 M⁻¹ s⁻¹; in assay [15], 1.22e+07 M⁻¹ s⁻¹. In addition, the Kd in [4] is 0.018 nM; in assay [5], 0.17 nM; in assay [6], 0.038 nM; in assay [7], 0.039 nM.

B10: lipocalin mutein SEQ ID NO: 17 (designed binder)
chain: B8 chain with A41V, K75R, I80T, K98E, N114D, F123V
notes: as for B8
For the molecule B10, the entries for the “cAMP assay IC50, SK-N-MC cells” value in assay [16] and in assay [17] were 0.13 nM and 0.09 nM, respectively. The Kd amounted to 0.001 nM in [4]; 0.031 nM in assay [5]; 0.011 nM in [6]; 0.012 nM in assay [7]; 0.003 nM in assay [18]; 0.02 nM in assay [19]. For the same molecule, the koff worked out at 1.44e-05 s⁻¹ in assay [4], 8.44e-05 s⁻¹ in [5], 3.66e-05 s⁻¹ in assay [6] and 5.99e-05 s⁻¹ in [7]. In addition, the kon in assay [4] turned out to be 1.36e+07 M⁻¹ s⁻¹; in assay [5] it was 2.75e+06 M⁻¹ s⁻¹; in assay [6] it was 3.34e+06 M⁻¹ s⁻¹; in assay [7] it was 5.18e+06 M⁻¹ s⁻¹. Moreover, the “IC50, CGRP-induced cAMP production, SK-N-MC cells” value was 0.23 nM in assay [8] and 0.11 nM in assay [10]. For the same molecule, the “IC50, CGRP-induced cAMP production, L6 cells” value in assay [9] was determined as 0.06 nM; in assay [11] it was 0.11 nM.
